Publication PMC7797213, “Vascular effects of serelaxin in patients with stable coronary artery disease: a randomized placebo-controlled trial” (Cardiovascular Research, 2020)

Columns and labels:
Assay type in all cases: in vivo, human
[1] = tested on: patients with stable coronary artery disease; test: Aortic MRI measurements of arterial stiffness (strain, distensibility, peak flow velocity); conditions: for Ascending aorta distensibility / Ascending aorta strain / Descending aorta distensibility / Descending aorta strain / Peak flow velocity: mean ± SD
Protocol: Full left ventricular short-axis stack of cine images was acquired during the interval between stress and rest first-pass perfusion acquisitions. Following administration of the top-up contrast dose (Gadovist 0.05 mmol/kg), aortic cine and phase-velocity encoding sequences were acquired at the level of the pulmonary artery bifurcation. LGE imaging was performed with a segmented phase-sensitive inversion recovery sequence.
CMR image collection, blinding, and handling were managed by an independent imaging contract-research organization (CRO; VirtualScopics, Inc., Rochester, NY, USA). The CMR quantitative analyses were performed by blinded academic readers with >3 years of CMR experience (D.C., A.R., and C.B.). Cine images for ventricular volumes and mass and myocardial perfusion images were manually contoured (QMass, Medis, Leiden, Netherlands). Myocardial blood flow (MBF) was derived from stress and rest perfusion images using a Fermi deconvolution method,[25] implemented in MATLAB.[26] Global MPR was calculated from the ratio of global MBF evaluated at stress and at rest (MPR = stress MBF/rest MBF). Global MBF was calculated by averaging the MBF (mL/g/min) for basal, mid, and apical short-axis left ventricular slices. Ascending and descending aortic strain and distensibility were derived from manually contoured end-diastolic and end-systolic aortic cine images. Aortic strain (AS, unit free fraction) = [maximum aortic lumen area − minimum aortic lumen area]/minimum aortic lumen area. Aortic distensibility (AD, mmHg^−^1) = aortic strain/pulse pressure. Ascending aortic peak flow velocity (m/s) was derived from manually contoured phase-velocity encoding sequence images (QFlow, Medis, Leiden, Netherlands). The presence or absence of myocardial scar was qualitatively assessed on the LGE images.
Model: Change from baseline was analysed using ANCOVA model including treatment as fixed effect and baseline as continuous covariate.

hsTnT = test: Plasma biomarker high-sensitivity troponin T; parameters: hs Troponin-T, geo-mean (95% CI): unit not given here
Protocol: Biomarkers reported include: N-terminal pro-brain natriuretic peptide (NT-proBNP), high-sensitivity troponin T (hsTnT) measured to assess myocardial safety; cystatin C measured to access renal function; the biologically active form of endothelin-1 (1–21), measured to assess vascular function. Venous blood samples were collected at 0 (pre-dose), 24, 48, and 54 h, Day 30, and Day 180. NT-proBNP, hsTnT, and cystatin C samples were collected in EDTA tubes while endothelin-1 samples were collected in EDTA tubes containing aprotinin. Plasma was immediately frozen at −70°C pending analysis in complete patient sets. Commercial biomarker kits were as follows: hsTnT from Roche Diagnostics GmbH, Germany; cystatin C from Gentian, Moss, Norway; and active endothelin-1 […] from Biomedica Medizinprodukte, Vienna, Austria.
For the biomarker analyses, baseline was defined as the pre-dose assessment on Day 1. Raw values as well as changes from baseline were summarized by treatment and time. Descriptive statistics included geometric mean and 95% CI. For geometric means of change from baseline, a ratio to baseline was used to determine percentage change by first calculating in the log domain and then back transforming using exponentiation.
Baseline corresponds to the value at day 1 pre-dose. For change from baseline, geometric mean and its CI are calculated for the value (post) to baseline ratio.

[2] = tested on: patients with stable coronary artery disease; test: Adverse events and serious adverse events
Protocol: All adverse events (AEs) were recorded along with investigator-reported seriousness, intensity, and relationship to study drug.

[3] = baseline to day 3, ANCOVA, n=23

Serelaxin
Ascending aorta distensibility ([1]; 0 h (pre-dose baseline), n=24): 0.002 ± 0.002 (24) mm/Hg | Ascending aorta strain ([1]; 0 h (pre-dose baseline), n=24): 0.12 ± 0.06 (24) | Descending aorta distensibility ([1]; 0 h (pre-dose baseline), n=24): 0.002 ± 0.001 (24) mm/Hg | Descending aorta strain ([1]; 0 h (pre-dose baseline), n=24): 0.16 ± 0.06 (24) | Peak flow velocity ([1]; 0 h (pre-dose baseline), n=24): 128.00 ± 66.69 (24) cm/sec | Ascending aorta distensibility ([1]; 47 h post-dose, n=23): 0.002 ± 0.001 (23) mm/Hg | Ascending aorta strain ([1]; 47 h post-dose, n=23): 0.12 ± 0.06 (23) | Descending aorta distensibility ([1]; 47 h post-dose, n=23): 0.002 ± 0.001 (23) mm/Hg | Descending aorta strain ([1]; 47 h post-dose, n=23): 0.17 ± 0.05 (23) | Peak flow velocity ([1]; 47 h post-dose, n=23): 127.98 ± 60.76 (23) cm/sec | CMR-derived parameters of aortic stiffness, change from baseline to 47 h compared with placebo ([1]; ascending/descending aorta strain and distensibility, ascending aortic peak flow velocity, P > 0.05 for all): no significant change | Ascending aorta distensibility, adjusted mean difference serelaxin versus placebo ([1]; baseline to day 3, ANCOVA): -0.0001 mm/Hg | Ascending aorta strain, adjusted mean difference serelaxin versus placebo ([1]; baseline to day 3, ANCOVA): 0.01 | Descending aorta distensibility, adjusted mean difference serelaxin versus placebo ([1]; baseline to day 3, ANCOVA): -0.0001 mm/Hg | Descending aorta strain, adjusted mean difference serelaxin versus placebo ([1]; baseline to day 3, ANCOVA): 0.01 | Peak flow velocity, adjusted mean difference serelaxin versus placebo ([1]; baseline to day 3, ANCOVA): 13.71 cm/sec | Ascending aorta distensibility, change from baseline (adjusted mean) [1, 3]: -0.0001 mm/Hg | Ascending aorta strain, change from baseline (adjusted mean) [1, 3]: 0.01 | Descending aorta distensibility, change from baseline (adjusted mean) [1, 3]: 0.0001 mm/Hg | Descending aorta strain, change from baseline (adjusted mean) [1, 3]: 0.011 | Peak flow velocity, change from baseline (adjusted mean) [1, 3]: 10.12 cm/sec | hs Troponin-T change from baseline, geometric mean ratio to baseline (95% CI) (hsTnT; 24 h, n=27): 0.90 (0.80, 1.01) | hs Troponin-T change from baseline, geometric mean ratio to baseline (95% CI) (hsTnT; 48 h, n=28): 0.87 (0.79, 0.95) | hs Troponin-T change from baseline, geometric mean ratio to baseline (95% CI) (hsTnT; 54 h, n=27): 1.02 (0.85, 1.24) | hs Troponin-T change from baseline, geometric mean ratio to baseline (95% CI) (hsTnT; Day 30, n=29): 0.89 (0.78, 1.02) | hs Troponin-T change from baseline, geometric mean ratio to baseline (95% CI) (hsTnT; Day 180, n=29): 1.09 (0.91, 1.31) | hs Troponin-T, geo-mean (95% CI) (hsTnT; plasma, 0 h (pre-dose baseline), n=29): 0.0076 (0.0057, 0.0102) | hs Troponin-T, geo-mean (95% CI) (hsTnT; plasma, 24 h, n=27): 0.0064 (0.0049, 0.0084) | hs Troponin-T, geo-mean (95% CI) (hsTnT; plasma, 48 h, n=28): 0.0066 (0.0049, 0.0089) | hs Troponin-T, geo-mean (95% CI) (hsTnT; plasma, 54 h, n=27): 0.0079 (0.0057, 0.0110) | hs Troponin-T, geo-mean (95% CI) (hsTnT; plasma, Day 30, n=29): 0.0068 (0.0053, 0.0088) | hs Troponin-T, geo-mean (95% CI) (hsTnT; plasma, Day 180, n=29): 0.0083 (0.0066, 0.0105) | hsTnT geometric mean at baseline (hsTnT; plasma, pre-dose baseline, serelaxin group): 7.6 ng/L | Patients discontinuing the study due to hypotensive events ([2]; in vivo): No patient | AEs considered causally related to serelaxin ([2]; investigator-reported relationship): None | Angina pectoris (AE by preferred term) ([2]; safety set n=30): 1 (3) n (%) | Angina unstable (AE by preferred term) ([2]; safety set n=30): 1 (3) n (%) | Blood creatinine increased (AE by preferred term) ([2]; safety set n=30): 1 (3) n (%) | Dizziness (AE by preferred term) ([2]; safety set n=30): 2 (7) n (%) | Dyspnoea (AE by preferred term) ([2]; safety set n=30): 2 (7) n (%) | Haematocrit decreased (AE by preferred term) ([2]; safety set n=30): 1 (3) n (%) | Haemoglobin decreased (AE by preferred term) ([2]; safety set n=30): 2 (7) n (%) | Headache (AE by preferred term) ([2]; safety set n=30): 2 (7) n (%) | Musculoskeletal pain (AE by preferred term) ([2]; safety set n=30): 2 (7) n (%) | Presyncope (AE by preferred term) ([2]; safety set n=30): 0 (0) n (%) | Subjects with at least one AE ([2]; safety set n=30, 48 h IV infusion 30 µg/kg/day, follow-up to Day 180): 17 (57) n (%) | Deaths ([2]; study period to Day 180): No deaths
